{"source": "IntAct's records for PubMed 15670823", "biological_target": "cnkr1_human CNKSR1 (UniProt Q969H4)", "sequence (Q969H4 whole entry)": "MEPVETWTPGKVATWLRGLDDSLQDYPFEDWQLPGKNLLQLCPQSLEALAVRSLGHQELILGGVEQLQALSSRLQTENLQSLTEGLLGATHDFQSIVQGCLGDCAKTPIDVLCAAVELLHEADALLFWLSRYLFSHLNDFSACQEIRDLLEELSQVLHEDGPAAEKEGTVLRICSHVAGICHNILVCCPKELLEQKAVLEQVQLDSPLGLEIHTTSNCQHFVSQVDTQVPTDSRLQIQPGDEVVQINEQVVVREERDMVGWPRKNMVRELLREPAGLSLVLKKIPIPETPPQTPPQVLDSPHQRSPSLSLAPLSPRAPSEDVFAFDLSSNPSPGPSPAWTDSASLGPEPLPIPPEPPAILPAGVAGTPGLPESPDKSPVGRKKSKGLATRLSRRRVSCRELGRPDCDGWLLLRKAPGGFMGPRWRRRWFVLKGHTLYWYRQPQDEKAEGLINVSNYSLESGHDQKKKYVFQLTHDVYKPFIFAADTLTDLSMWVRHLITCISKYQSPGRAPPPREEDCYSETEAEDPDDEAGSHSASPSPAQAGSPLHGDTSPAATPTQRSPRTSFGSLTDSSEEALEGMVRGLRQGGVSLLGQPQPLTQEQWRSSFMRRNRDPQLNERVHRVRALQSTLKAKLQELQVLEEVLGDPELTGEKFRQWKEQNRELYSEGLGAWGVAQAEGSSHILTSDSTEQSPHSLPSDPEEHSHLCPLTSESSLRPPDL"}
{"substance": "Rho-related GTP-binding protein RhoC (Homo sapiens), P08134 G14V", "values": [{"measurement": "effect of a mutation on the interaction", "result": "increasing interaction"}]}
